These results are taken from patent publication US20170015742A1 (published 2017).

B1: CODV003 (bispecific antibody, human IgG1, kappa, L234A L235A)
heavy: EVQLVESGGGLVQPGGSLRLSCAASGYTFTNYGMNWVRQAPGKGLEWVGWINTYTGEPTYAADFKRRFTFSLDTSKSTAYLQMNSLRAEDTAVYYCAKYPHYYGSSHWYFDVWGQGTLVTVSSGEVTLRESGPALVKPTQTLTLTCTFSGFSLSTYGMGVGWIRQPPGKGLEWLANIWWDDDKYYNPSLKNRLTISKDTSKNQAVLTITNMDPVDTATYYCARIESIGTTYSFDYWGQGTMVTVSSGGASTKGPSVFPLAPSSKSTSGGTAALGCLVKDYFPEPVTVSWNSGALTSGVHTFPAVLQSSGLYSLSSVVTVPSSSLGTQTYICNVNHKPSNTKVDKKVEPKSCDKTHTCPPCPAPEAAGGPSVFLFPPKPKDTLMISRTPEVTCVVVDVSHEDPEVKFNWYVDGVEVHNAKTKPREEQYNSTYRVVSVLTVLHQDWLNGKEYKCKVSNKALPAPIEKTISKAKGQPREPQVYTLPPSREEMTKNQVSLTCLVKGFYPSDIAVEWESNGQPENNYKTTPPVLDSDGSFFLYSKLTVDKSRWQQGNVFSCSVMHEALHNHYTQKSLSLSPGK
light: DFQLTQSPSSLSASVGDRVTITCERSSGDIGDSYVSWYQQKPGKAPKNVIYADDQRPSGVPSRFSGSGSGNSASLTISSLQPEDFATYFCQSYDINIDIVFGQGTKVEIKGGGSGGGDIQMTQSPSSLSASVGDRVTITCSASQDISNYLNWYQQKPGKAPKVLIYFTSSLHSGVPSRFSGSGSGTDFTLTISSLQPEDFATYYCQQYSTVPWTFGQGTKVEIKGGGSGRTVAAPSVFIFPPSDEQLKSGTASVVCLLNNFYPREAKVQWKVDNALQSGNSQESVTEQDSKDSTYSLSSTLTLSKADYEKHKVYACEVTHQGLSSPVTKSFNRGEC
notes: Anti-human VEGF-A/anti-human PDGF-BB cross-over DVD-Ig (CO-DVD-Ig); also called PR-1565044
B2: CODV006 (bispecific antibody, human IgG1, kappa, L234A L235A)
heavy: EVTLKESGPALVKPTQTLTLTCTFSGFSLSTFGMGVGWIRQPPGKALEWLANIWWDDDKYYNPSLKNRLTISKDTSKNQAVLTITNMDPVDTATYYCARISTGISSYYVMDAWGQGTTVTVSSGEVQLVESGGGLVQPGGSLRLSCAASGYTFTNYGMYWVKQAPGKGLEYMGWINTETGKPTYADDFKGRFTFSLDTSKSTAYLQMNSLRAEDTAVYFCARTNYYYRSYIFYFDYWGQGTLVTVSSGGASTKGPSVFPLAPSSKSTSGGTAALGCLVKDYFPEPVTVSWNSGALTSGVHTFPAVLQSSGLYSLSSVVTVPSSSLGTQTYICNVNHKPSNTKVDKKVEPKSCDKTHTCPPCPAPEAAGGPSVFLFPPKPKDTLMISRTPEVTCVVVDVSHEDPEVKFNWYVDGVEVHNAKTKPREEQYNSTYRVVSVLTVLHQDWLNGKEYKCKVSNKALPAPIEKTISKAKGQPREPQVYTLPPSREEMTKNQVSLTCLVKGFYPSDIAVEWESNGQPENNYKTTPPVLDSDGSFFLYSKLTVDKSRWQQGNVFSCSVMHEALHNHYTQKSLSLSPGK
light: DTQLTQSPSSLSASVGDRVTISCRASESVSTHMHWYQQKPGKAPKLLIYGASNLESGVPSRFSGSGSGTDFTLTISSLQPEDFATYFCQQSWNDPFTFGQGTKVEIKGGGSGGGDFQLTQSPSSLSASVGDRVTITCERSSGDIGDTYVSWYQQKPGKAPKNVIYGNDQRPSGVPSRFSGSGSGNSATLTISSLQPEDFATYFCQSYDSDIDIVFGQGTKVEIKGGGSGRTVAAPSVFIFPPSDEQLKSGTASVVCLLNNFYPREAKVQWKVDNALQSGNSQESVTEQDSKDSTYSLSSTLTLSKADYEKHKVYACEVTHQGLSSPVTKSFNRGEC
notes: Anti-human VEGF-A/anti-human PDGF-BB cross-over DVD-Ig (CO-DVD-Ig); also called PR-1565084
B3: CODV008 (bispecific antibody, human IgG1, kappa, L234A L235A)
heavy: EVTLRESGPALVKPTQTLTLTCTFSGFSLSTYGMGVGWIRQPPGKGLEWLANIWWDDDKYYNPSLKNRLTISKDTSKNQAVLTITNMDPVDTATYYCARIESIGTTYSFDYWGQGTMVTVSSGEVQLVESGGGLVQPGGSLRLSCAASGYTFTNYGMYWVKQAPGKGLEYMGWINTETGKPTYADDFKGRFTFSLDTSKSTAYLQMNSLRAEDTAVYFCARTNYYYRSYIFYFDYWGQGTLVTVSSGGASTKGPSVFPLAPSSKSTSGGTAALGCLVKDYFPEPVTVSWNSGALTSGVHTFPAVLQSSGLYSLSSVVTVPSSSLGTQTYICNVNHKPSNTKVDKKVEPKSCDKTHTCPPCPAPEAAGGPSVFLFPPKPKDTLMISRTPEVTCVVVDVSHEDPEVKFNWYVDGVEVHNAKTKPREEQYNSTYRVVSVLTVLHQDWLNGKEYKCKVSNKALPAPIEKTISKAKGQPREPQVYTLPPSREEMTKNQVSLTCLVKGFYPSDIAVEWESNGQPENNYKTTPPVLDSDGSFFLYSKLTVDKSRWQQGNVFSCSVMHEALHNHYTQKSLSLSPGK
light: B2 light with T147S, G166A, N167D, T188S, S209I, D210N
notes: Anti-human VEGF-A/anti-human PDGF-BB cross-over DVD-Ig (CO-DVD-Ig); also called PR-1565086
B4: CODV004 (bispecific antibody, human IgG1, kappa, L234A L235A)
heavy: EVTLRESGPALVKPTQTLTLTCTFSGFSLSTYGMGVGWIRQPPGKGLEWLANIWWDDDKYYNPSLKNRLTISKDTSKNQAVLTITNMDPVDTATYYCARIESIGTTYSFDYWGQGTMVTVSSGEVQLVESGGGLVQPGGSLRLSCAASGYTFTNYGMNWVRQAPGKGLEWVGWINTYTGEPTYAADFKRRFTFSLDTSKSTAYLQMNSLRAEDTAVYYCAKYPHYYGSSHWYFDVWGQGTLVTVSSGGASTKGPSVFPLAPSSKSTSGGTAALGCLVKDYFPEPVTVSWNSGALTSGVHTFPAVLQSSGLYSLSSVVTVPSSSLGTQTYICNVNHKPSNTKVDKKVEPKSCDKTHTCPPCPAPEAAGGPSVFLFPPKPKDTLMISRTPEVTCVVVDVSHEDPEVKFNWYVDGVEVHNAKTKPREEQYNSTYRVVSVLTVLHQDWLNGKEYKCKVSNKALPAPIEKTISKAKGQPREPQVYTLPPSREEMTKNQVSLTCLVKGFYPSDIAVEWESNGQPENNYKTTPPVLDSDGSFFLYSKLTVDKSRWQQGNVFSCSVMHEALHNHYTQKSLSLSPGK
light: DIQMTQSPSSLSASVGDRVTITCSASQDISNYLNWYQQKPGKAPKVLIYFTSSLHSGVPSRFSGSGSGTDFTLTISSLQPEDFATYYCQQYSTVPWTFGQGTKVEIKGGGSGGGDFQLTQSPSSLSASVGDRVTITCERSSGDIGDSYVSWYQQKPGKAPKNVIYADDQRPSGVPSRFSGSGSGNSASLTISSLQPEDFATYFCQSYDINIDIVFGQGTKVEIKGGGSGRTVAAPSVFIFPPSDEQLKSGTASVVCLLNNFYPREAKVQWKVDNALQSGNSQESVTEQDSKDSTYSLSSTLTLSKADYEKHKVYACEVTHQGLSSPVTKSFNRGEC
notes: Anti-human VEGF-A/anti-human PDGF-BB cross-over DVD-Ig (CO-DVD-Ig); also called PR-1565051
B5: CODV005 (bispecific antibody, human IgG1, kappa, L234A L235A)
heavy: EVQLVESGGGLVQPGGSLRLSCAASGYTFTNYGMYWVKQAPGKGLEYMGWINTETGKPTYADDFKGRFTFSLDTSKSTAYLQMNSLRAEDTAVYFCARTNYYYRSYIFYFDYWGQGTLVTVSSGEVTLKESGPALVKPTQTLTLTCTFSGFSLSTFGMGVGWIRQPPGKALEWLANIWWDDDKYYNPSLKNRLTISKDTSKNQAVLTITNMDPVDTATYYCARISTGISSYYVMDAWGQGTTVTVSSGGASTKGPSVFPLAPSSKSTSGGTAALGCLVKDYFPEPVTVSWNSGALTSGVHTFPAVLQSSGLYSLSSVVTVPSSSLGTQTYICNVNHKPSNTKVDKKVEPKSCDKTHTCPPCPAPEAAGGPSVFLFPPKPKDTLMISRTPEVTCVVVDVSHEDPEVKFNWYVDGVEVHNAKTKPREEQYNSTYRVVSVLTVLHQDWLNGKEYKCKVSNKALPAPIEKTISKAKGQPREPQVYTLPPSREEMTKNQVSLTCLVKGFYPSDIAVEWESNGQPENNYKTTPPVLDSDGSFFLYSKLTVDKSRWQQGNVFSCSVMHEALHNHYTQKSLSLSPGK
light: DFQLTQSPSSLSASVGDRVTITCERSSGDIGDTYVSWYQQKPGKAPKNVIYGNDQRPSGVPSRFSGSGSGNSATLTISSLQPEDFATYFCQSYDSDIDIVFGQGTKVEIKGGGSGGGDTQLTQSPSSLSASVGDRVTISCRASESVSTHMHWYQQKPGKAPKLLIYGASNLESGVPSRFSGSGSGTDFTLTISSLQPEDFATYFCQQSWNDPFTFGQGTKVEIKGGGSGRTVAAPSVFIFPPSDEQLKSGTASVVCLLNNFYPREAKVQWKVDNALQSGNSQESVTEQDSKDSTYSLSSTLTLSKADYEKHKVYACEVTHQGLSSPVTKSFNRGEC
notes: Anti-human VEGF-A/anti-human PDGF-BB cross-over DVD-Ig (CO-DVD-Ig); also called PR-1565083
B6: CODV007 (bispecific antibody, human IgG1, kappa, L234A L235A)
heavy: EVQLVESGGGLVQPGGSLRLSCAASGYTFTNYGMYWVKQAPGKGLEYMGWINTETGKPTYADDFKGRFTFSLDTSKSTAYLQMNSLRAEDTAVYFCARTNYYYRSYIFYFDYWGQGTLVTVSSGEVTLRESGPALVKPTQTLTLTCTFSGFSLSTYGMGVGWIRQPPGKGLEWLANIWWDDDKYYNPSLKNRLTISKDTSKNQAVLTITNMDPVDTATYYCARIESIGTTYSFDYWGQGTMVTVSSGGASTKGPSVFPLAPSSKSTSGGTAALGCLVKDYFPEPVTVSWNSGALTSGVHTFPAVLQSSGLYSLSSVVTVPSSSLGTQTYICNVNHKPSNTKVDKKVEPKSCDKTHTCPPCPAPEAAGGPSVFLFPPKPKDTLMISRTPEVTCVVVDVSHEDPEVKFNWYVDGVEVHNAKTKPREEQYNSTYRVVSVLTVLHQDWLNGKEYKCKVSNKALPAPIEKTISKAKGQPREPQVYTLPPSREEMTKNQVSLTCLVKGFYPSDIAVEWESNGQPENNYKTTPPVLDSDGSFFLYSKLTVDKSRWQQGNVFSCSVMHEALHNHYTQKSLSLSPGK
light: B5 light with T33S, G52A, N53D, T74S, S95I, D96N
notes: Anti-human VEGF-A/anti-human PDGF-BB cross-over DVD-Ig (CO-DVD-Ig); also called PR-1565085
B7: CODV009 (bispecific antibody, human IgG1, kappa, L234A L235A)
heavy: EVQLVQSGSELKKPGASVKVSCKASGYTFTNYGMYWVRQAPGQGLEWMGWINTETGKPTYADDFKGRFVFSLDTSVSTAYLQISSLKAEDTAVYYCARTNYYYRSYIFYFDYWGQGTMVTVSSGEVTLRESGPALVKPTQTLTLTCTFSGFSLSTYGMGVGWIRQPPGKALEWLANIWWDDDKYYNPSLKNRLTISKDTSKNQVVLTMTNMDPVDTATYYCARIESIGTTYSFDYWGQGTMVTVSSGGASTKGPSVFPLAPSSKSTSGGTAALGCLVKDYFPEPVTVSWNSGALTSGVHTFPAVLQSSGLYSLSSVVTVPSSSLGTQTYICNVNHKPSNTKVDKKVEPKSCDKTHTCPPCPAPEAAGGPSVFLFPPKPKDTLMISRTPEVTCVVVDVSHEDPEVKFNWYVDGVEVHNAKTKPREEQYNSTYRVVSVLTVLHQDWLNGKEYKCKVSNKALPAPIEKTISKAKGQPREPQVYTLPPSREEMTKNQVSLTCLVKGFYPSDIAVEWESNGQPENNYKTTPPVLDSDGSFFLYSKLTVDKSRWQQGNVFSCSVMHEALHNAYTQKSLSLSPGK
light: EFVLTQSPGTLSLSPGERATLSCERSSGDIGDSYVSWYQQKPGQAPRLVIYADDQRPSGIPDRFSGSGSGTDFTLTISRLEPEDFAVYYCQSYDINIDIVFGGGTKVEIKGGGSGGGDTVLTQSPATLSLSPGERATLSCRASESVSTHMHWYQQKPGQAPRLLIYGASNLESGVPARFSGSGSGTDFTLTISSLEPEDFAVYFCQQSWNDPFTFGQGTKLEIKGGGSGRTVAAPSVFIFPPSDEQLKSGTASVVCLLNNFYPREAKVQWKVDNALQSGNSQESVTEQDSKDSTYSLSSTLTLSKADYEKHKVYACEVTHQGLSSPVTKSFNRGEC
notes: Anti-human VEGF-A/anti-human PDGF-BB cross-over DVD-Ig (CO-DVD-Ig); also called PR-1571821
B8: DVD3906 (PR-1565035) (bispecific antibody, human IgG1, kappa, L234A L235A)
heavy: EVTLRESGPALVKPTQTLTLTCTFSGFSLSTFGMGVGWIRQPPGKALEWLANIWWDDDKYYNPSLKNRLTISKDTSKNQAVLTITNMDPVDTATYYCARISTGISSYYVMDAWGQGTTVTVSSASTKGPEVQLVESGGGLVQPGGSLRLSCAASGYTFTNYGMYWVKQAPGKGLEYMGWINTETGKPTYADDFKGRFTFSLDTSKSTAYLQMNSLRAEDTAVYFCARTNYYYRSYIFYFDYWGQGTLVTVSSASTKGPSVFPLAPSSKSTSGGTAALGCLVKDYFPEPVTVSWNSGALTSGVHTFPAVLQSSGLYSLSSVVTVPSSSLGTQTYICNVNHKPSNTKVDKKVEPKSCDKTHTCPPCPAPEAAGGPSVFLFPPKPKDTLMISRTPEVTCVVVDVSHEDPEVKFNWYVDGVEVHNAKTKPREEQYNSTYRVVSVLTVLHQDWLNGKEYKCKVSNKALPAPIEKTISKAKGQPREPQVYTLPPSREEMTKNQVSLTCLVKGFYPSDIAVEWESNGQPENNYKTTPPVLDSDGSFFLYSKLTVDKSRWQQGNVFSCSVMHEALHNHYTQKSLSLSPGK
light: DFQLTQSPSSLSASVGDRVTITCERSSGDIGDTYVSWYQQKPGKAPKNVIYGNDQRPSGVPSRFSGSGSGNSATLTISSLQPEDFATYFCQSYDSDIDIVFGQGTKVEIKGTVAAPSVFIFPPDTQLTQSPSSLSASVGDRVTISCRASESVSTHMHWYQQKPGKAPKLLIYGASNLESGVPSRFSGSGSGTDFTLTISSLQPEDFATYFCQQSWNDPFTFGQGTKVEIKRTVAAPSVFIFPPSDEQLKSGTASVVCLLNNFYPREAKVQWKVDNALQSGNSQESVTEQDSKDSTYSLSSTLTLSKADYEKHKVYACEVTHQGLSSPVTKSFNRGEC
notes: DVD-Ig; linkers HG-short/LK-long, inner hBDB-4G8.15 (VEGF); human IgG1 L234A, L235A / kappa
B9: 4G8.3-GS(11)-9E8.4 (g) (PR-1572103) (bispecific antibody, human IgG1, kappa, L234A L235A)
heavy: EVQLVQSGSELKKPGASVKVSCKASGYTFTNYGMYWVRQAPGQGLEWMGWINTETGKPTYADDFKGRFVFSLDTSVSTAYLQISSLKAEDTAVYYCARTNYYYRSYIFYFDYWGQGTMVTVSSGGGGSGGGGSEVTLRESGPALVKPTQTLTLTCTFSGFSLSTYGMGVGWIRQPPGKALEWLANIWWDDDKYYNPSLKNRLTISKDTSKNQVVLTMTNMDPVDTATYYCARIESIGTTYSFDYWGQGTMVTVSSASTKGPSVFPLAPSSKSTSGGTAALGCLVKDYFPEPVTVSWNSGALTSGVHTFPAVLQSSGLYSLSSVVTVPSSSLGTQTYICNVNHKPSNTKVDKKVEPKSCDKTHTCPPCPAPEAAGGPSVFLFPPKPKDTLMISRTPEVTCVVVDVSHEDPEVKFNWYVDGVEVHNAKTKPREEQYNSTYRVVSVLTVLHQDWLNGKEYKCKVSNKALPAPIEKTISKAKGQPREPQVYTLPPSREEMTKNQVSLTCLVKGFYPSDIAVEWESNGQPENNYKTTPPVLDSDGSFFLYSKLTVDKSRWQQGNVFSCSVMHEALHNAYTQKSLSLSPGK
light: DTVLTQSPATLSLSPGERATLSCRASESVSTHMHWYQQKPGQAPRLLIYGASNLESGVPARFSGSGSGTDFTLTISSLEPEDFAVYFCQQSWNDPFTFGQGTKLEIKRGGSGGGGSGGEFVLTQSPGTLSLSPGERATLSCERSSGDIGDSYVSWYQQKPGQAPRLVIYADDQRPSGIPDRFSGSGSGTDFTLTISRLEPEDFAVYYCQSYDINIDIVFGGGTKVEIKRTVAAPSVFIFPPSDEQLKSGTASVVCLLNNFYPREAKVQWKVDNALQSGNSQESVTEQDSKDSTYSLSSTLTLSKADYEKHKVYACEVTHQGLSSPVTKSFNRGEC
notes: DVD-Ig; outer hBDB-4G8.3 (VEGF), linkers GS-H10/GS-L11, inner hBDI-9E8.4 (PDGF); human IgG1 L234A, L235A, H435A / kappa

Changes are numbered by the printed parent chain. Numbers in names are those of the source.

T2 sequence (P01127 82-190 limits assumed): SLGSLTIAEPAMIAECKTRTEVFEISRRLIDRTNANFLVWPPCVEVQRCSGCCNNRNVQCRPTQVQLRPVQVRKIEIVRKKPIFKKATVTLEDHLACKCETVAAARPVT

For one assay, the target named is T1, Human VEGF-A 165 (human, UniProt P15692 207-395).
T1 construct: also called hVEGF165
T1 sequence (P15692 other isoform, or with tags, fused parts or gaps limits assumed): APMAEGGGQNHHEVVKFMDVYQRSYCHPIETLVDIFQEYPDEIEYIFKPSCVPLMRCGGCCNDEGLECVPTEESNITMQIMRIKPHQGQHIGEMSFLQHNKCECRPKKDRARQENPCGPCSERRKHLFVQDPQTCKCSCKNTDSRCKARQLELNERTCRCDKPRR
The experiment in a line: SPR (Biacore), method of Example 1.1. The protocol:
(§1) Unreacted moieties on the biosensor surface were blocked with ethanolamine. For kinetic analysis, rate equations derived from the 1:1 Langmuir binding model were fitted simultaneously to multiple antigen injections (using global fit analysis) with the use of Scrubber 2 (BioLogic Software), Biacore Biaevaluation 4.0.1 software or Biacore T100 Evaluation software. Purified antibodies or DVD-Ig molecules were diluted in running buffer for capture across goat anti-human Fc reaction surfaces. Antibodies or DVD-Ig molecules to be captured as a ligand (1 μg/ml) were injected over reaction matrices at a flow rate of 10 μl/minute. During the assay, all measurements were referenced against the capture surface alone (i.e., with no captured antibody or DVD-Ig molecule). […] The equilibrium dissociation constant KD (M) of the reaction between antibodies and the target antigen was then calculated from the kinetic rate constants by the following formula: KD=Koff/Kₒₙ. Binding was recorded as a function of time and kinetic rate constants were calculated. In this assay, on-rates as fast as 10⁶M⁻¹s⁻¹ and off-rates as slow as 10⁻⁶ s⁻¹ could be measured.
A general note: SPR reads the build-up and loss of mass on a sensor chip optically.
In the case of B1, the binding result was “no binding”.
Take B2: the binding result is recorded as “no binding”.
The same measure, in the same setting: as for B3, the entry is “no binding”; as for B4, “no binding”.
As usually defined, the Kd is the constant that tells how readily two partners part at equilibrium. Low readings indicate a tighter complex, high ones a looser complex. B5 yielded a Kd of 35 nM.
The same measure, in the same setting: as for B6, the figure is 22 nM.
The same measure, in the same setting: to B7 belongs 26 nM.

A further assay has as its target T2, Human PDGF-BB (human, UniProt P01127 82-190).
T2 construct: also called hPDGF-BB
The experiment in a line: SPR (Biacore), method of Example 1.1. The protocol: as §1
One may read the kon as a measure of how fast the partners come together. Molecule B1 gave a Kd of 0.011 nM and a kon of 2.3e+07 M⁻¹ s⁻¹.
The corresponding values for B2 are 0.0097 nM and 2.2e+07 M⁻¹ s⁻¹.
The corresponding values for B3 are 0.0074 nM and 1.7e+07 M⁻¹ s⁻¹.
On the same counts, the results for B4 are 0.087 nM and 1e+07 M⁻¹ s⁻¹.
In turn, B5 registered a Kd of 0.011 nM and an on-rate (kon) of 1.2e+07 M⁻¹ s⁻¹.
The corresponding values for B6 are 0.0073 nM and 2.9e+07 M⁻¹ s⁻¹.
Take B7: binding was put at a Kd of 0.0056 nM and the association rate constant (kon) was 3.5e+07 M⁻¹ s⁻¹.

The next assay deals with VEGF-A (UniProt P15692-4 27-191, limits assumed). The experiment in a line: SPR (Biacore), DVD-Ig captured by anti-human Fc, antigen in flow. The procedure: as §1, with “For example, approximately 9000 RU of goat anti-human Fc specific polyclonal antibody (Thermo Fisher Scientific Inc., Rockford, Ill.) diluted in 10 mM sodium acetate (pH 4.5) is directly immobilized across a CM5 research grade biosensor chip using a standard amine coupling kit according to manufacturer's instructions and procedures at 25 μg/ml. Unreacted” for “Unreacted”, “calculated.” for “calculated. In this assay, on-rates as fast as 10⁶M⁻¹s⁻¹ and off-rates as slow as 10⁻⁶ s⁻¹ could be measured.”
VEGF-A, sequence (P15692 other isoform, or with tags, fused parts or gaps limits assumed): as above
B8 registered a Kd of 0.1 nM and a kon of 920000 M⁻¹ s⁻¹.
B9 displayed a Kd of 0.012 nM and an on-rate (kon) of 6.3e+06 M⁻¹ s⁻¹.

The target in a further assay is PDGF-BB (UniProt P01127 82-190). Described as above. The procedure: as §1, with “For example, approximately 9000 RU of goat anti-human Fc specific polyclonal antibody (Thermo Fisher Scientific Inc., Rockford, Ill.) diluted in 10 mM sodium acetate (pH 4.5) is directly immobilized across a CM5 research grade biosensor chip using a standard amine coupling kit according to manufacturer's instructions and procedures at 25 μg/ml. Unreacted” for “Unreacted”, “calculated.” for “calculated. In this assay, on-rates as fast as 10⁶M⁻¹s⁻¹ and off-rates as slow as 10⁻⁶ s⁻¹ could be measured.”
PDGF-BB, sequence (P01127 82-190): as the sequence (P01127 82-190 limits assumed) above
With B8, the Kd is 0.72 nM and the kon turned out to be 1e+07 M⁻¹ s⁻¹.
On the same counts, the results for B9 are 0.013 nM and 1.4e+07 M⁻¹ s⁻¹.
